Patent US20220177560A1 (Janssen / Centocor, published 2022)
Numbering of substitutions follows the chain as printed. Names may count otherwise.

How the values were obtained:
HU-3pE-beta-Amyloid [1] = biological target: T1, HU-3pE-beta-Amyloid (human); test: SPR (per Example 5); antigen peptide not given
T1 construct: also called the peptide

human Aβ 3pE-28 peptide [2] = biological target: T2, human Aβ 3pE-28 peptide (human, pyroglutamate (pE) at the N-terminus, residue 3 of Aβ); test: SPR, antibody captured on anti-human or anti-mouse Ig chip, peptide injected, 1:1 fit; N=9
mouse Aβ 3pE-28 peptide [3] = biological target: T3, mouse Aβ 3pE-28 peptide (mouse, pyroglutamate (pE) at the N-terminus, residue 3 of Aβ); test: SPR, antibody captured, peptide injected, 1:1 fit
T3 construct: also called rodent Aβ3pE-28
T3 peptide: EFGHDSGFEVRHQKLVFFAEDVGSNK

human FcRn [4] = biological target: T4, human FcRn (human, UniProt P55899 24-297; P61769 21-119); test: FcRn binding affinity; method not described; average of 5-6 replicates
T4 construct: the construct is not described; also called FcRn (human)

cynomolgus FcRn [5] = biological target: T5, cynomolgus FcRn (cynomolgus, UniProt Q8SPV9 24-297; Q8SPW0 21-119); test: as above
T5 construct: the construct is not described; also called FcRn (cyno)

human Aβ 3pE-28 peptide [6] = biological target: T2, human Aβ 3pE-28 peptide; test: SPR; same value as in Table 5
Scrambled 3pE-28 [7] = biological target: T6, Scrambled 3pE-28 (human); test: SPR; KD limit divided by the KD for human 3pE Aβ
T6 construct: also called scrambled Aβ 3pE-28; Aβ 3pE-28 peptide with amino acids 3-9 scrambled
T6 peptide: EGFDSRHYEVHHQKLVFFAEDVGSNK

human Aβ 1-28 peptide [8] = biological target: human Aβ 1-28 peptide (human); test: SPR; KD limit divided by the KD for human 3pE Aβ
HU-3pE-beta-Amyloid [9] = biological target: T1, HU-3pE-beta-Amyloid; test: SPR; HU-3pE-beta-Amyloid 0.6 to 4.5 nM
mouse Aβ 3pE-28 peptide [10] = biological target: T3, mouse Aβ 3pE-28 peptide; test: SPR; KD for this peptide divided by the KD for human 3pE Aβ
Scrambled 3pE-28 [11] = biological target: T6, Scrambled 3pE-28; test: SPR; no binding up to the maximum 1.2 µM tested
human Aβ 1-28 peptide [12] = biological target: human Aβ 1-28 peptide (human); test: SPR; no binding up to the maximum 1.2 µM tested
human FcRn [13] = biological target: T4, human FcRn; test: FcRn binding affinity; method not described
cynomolgus FcRn [14] = biological target: T5, cynomolgus FcRn; test: FcRn binding affinity; method not described
human Aβ1-40 peptide = human Aβ1-40 peptide (human); test: SPR (Biacore T200), antibody captured, peptide injected
human Aβ 3pE-40 peptide = human Aβ 3pE-40 peptide (human, pyroglutamate (pE) at the N-terminus, residue 3 of Aβ); test: SPR (Biacore T200), antibody captured by anti-mouse antibody on CM5, peptide injected, 1:1 fit; mean
human Aβ 3pE-28 peptide [15] = biological target: T2, human Aβ 3pE-28 peptide; test: SPR, antibody captured on anti-human or anti-mouse Ig chip, peptide injected, 1:1 fit; N=1

T5 sequence (Q8SPV9 24-297 limits assumed, chain 1 of 2): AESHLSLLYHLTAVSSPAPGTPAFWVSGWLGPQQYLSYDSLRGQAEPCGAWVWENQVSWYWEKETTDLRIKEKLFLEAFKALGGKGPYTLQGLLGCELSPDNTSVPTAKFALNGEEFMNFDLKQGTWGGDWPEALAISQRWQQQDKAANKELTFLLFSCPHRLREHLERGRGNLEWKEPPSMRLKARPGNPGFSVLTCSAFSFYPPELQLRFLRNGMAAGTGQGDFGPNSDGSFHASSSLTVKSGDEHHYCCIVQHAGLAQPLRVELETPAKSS
T5 sequence (Q8SPW0 21-119 limits assumed, chain 2 of 2): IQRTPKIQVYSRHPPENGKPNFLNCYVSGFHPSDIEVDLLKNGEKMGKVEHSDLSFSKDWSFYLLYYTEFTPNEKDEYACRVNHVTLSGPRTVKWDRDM
Chain of human Aβ 3pE-40 peptide (human, pyroglutamate (pE) at the N-terminus, residue 3 of Aβ) (peptide, as listed by the source): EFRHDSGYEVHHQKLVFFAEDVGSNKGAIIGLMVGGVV
T2 sequence (peptide, as listed by the source): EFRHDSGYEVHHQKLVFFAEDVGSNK
T4 sequence (P55899 24-297 limits assumed, chain 1 of 2): as the sequence (Q8SPV9 24-297 limits assumed, chain 1 of 2) above, with D39N, Q44E, S99G, G189S, N190S, M217L, T269S counted along it
T4 sequence (P61769 21-119 limits assumed, chain 2 of 2): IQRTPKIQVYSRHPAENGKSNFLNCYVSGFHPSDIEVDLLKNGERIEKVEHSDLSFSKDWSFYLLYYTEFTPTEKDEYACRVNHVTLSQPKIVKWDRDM
Chain of human Aβ 1-28 peptide (human) (peptide, as listed by the source): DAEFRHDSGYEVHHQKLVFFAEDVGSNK
Chain of human Aβ1-40 peptide (human) (peptide, as listed by the source): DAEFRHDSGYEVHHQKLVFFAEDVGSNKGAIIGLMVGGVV

B1: BAMB623 (antibody, human IgG1, kappa, V domains shown)
VH: QVQLVQSGAEVKKPGASVKVSCKASGHVFTSYDMYWVRQAPGQSLEWIGYIDSDNGDTSYNQKFKGKATMTVDTSTSTVYMELSSLRSEDTAVYYCAYYRYAMDYWGQGTLVTVSS
VL: DVVMTQSPLSLPVTLGQPASISCKSSQSLLDSRAKTYLTWLQQRPGQSPRRLIYLVSKLDSGVPDRFSGSGSGTDFTLKISRVEAEDVGVYYCWQGTHFPYTFGGGTKLEIKR
notes: HFA variant of BAMB31, human IgG1
Kd (HU-3pE-beta-Amyloid [1]): 0.0183 nM

B2: BAMB674 (antibody, human IgG1, kappa)
heavy: not shown
light: DVVMTQSPLSLPVTLGQPASISCKSSQSLLDSRAKTYLTWLQQRPGQSPRRLIYLVSKLDSGVPDRFSGSGSGTDFTLKISRVEAEDVGVYYCWQGTHFPYTFGGGTKLEIKRTVAAPSVFIFPPSDEQLKSGTASVVCLLNNFYPREAKVQWKVDNALQSGNSQESVTEQDSKDSTYSLSSTLTLSKADYEKHKVYACEVTHQGLSSPVTKSFNRGEC
notes: Lead HFA variant, wild type human IgG1, HCDR2 N55S; also called BAMAB674; BAMB31 HFA mAb, wild type IgG1
Kd (human Aβ 3pE-28 peptide [2]): 0.0254 nM | koff (human Aβ 3pE-28 peptide [2]): 8.32e-05 s⁻¹ | kon (human Aβ 3pE-28 peptide [2]): 3.27e+06 M⁻¹ s⁻¹ | Kd (mouse Aβ 3pE-28 peptide [3]): 45.5 nM | koff (mouse Aβ 3pE-28 peptide [3]): 0.000338 s⁻¹ | kon (mouse Aβ 3pE-28 peptide [3]): 7400 M⁻¹ s⁻¹ | Kd (human FcRn [4]): 349 nM | Kd (cynomolgus FcRn [5]): 268 nM | Kd (human Aβ 3pE-28 peptide [6]): 0.0254 nM | Fold Selectivity (Scrambled 3pE-28 [7]): > 47000 fold | Fold Selectivity (human Aβ 1-28 peptide [8]): > 47000 fold | Kd (HU-3pE-beta-Amyloid [9]): 0.0401 nM | koff (HU-3pE-beta-Amyloid [9]): 0.000136 s⁻¹ | kon (HU-3pE-beta-Amyloid [9]): 3.39e+06 M⁻¹ s⁻¹ | Fold Selectivity (mouse Aβ 3pE-28 peptide [10]): 1790 fold | Kd (Scrambled 3pE-28 [11]): > 1200 nM | Kd (human Aβ 1-28 peptide [12]): > 1200 nM

B3: BAMB675 (antibody, human IgG1, kappa)
heavy: QVQLVQSGAEVKKPGASVKVSCKASGHVFTSYDMYWVRQAPGQGLEWIGYIDSDSGDTSYNQKFKGRVTLTVDTSTSTVYMELSSLRSEDTAVYYCAYYRYAMDYWGQGTLVTVSSASTKGPSVFPLAPSSKSTSGGTAALGCLVKDYFPEPVTVSWNSGALTSGVHTFPAVLQSSGLYSLSSVVTVPSSSLGTQTYICNVNHKPSNTKVDKKVEPKSCDKTHTCPPCPAPELLGGPSVFLFPPKPKDTLYITREPEVTCVVVDVSHEDPEVKFNWYVDGVEVHNAKTKPREEQYNSTYRVVSVLTVLHQDWLNGKEYKCKVSNKALPAPIEKTISKAKGQPREPQVYTLPPSREEMTKNQVSLTCLVKGFYPSDIAVEWESNGQPENNYKTTPPVLDSDGSFFLYSKLTVDKSRWQQGNVFSCSVMHEALHNHYTQKSLSLSPGK
light: B2 light
notes: Same V regions as BAMB674; human IgG1 with M37Y, S39T, T41E (YTE) in the Fc (numbering on the constant region, GenBank AEV43323); also called BAMB31 HFA mAb, +YTE IgG1; +YTE mAb
Kd (human Aβ 3pE-28 peptide [2]): 0.0257 nM | koff (human Aβ 3pE-28 peptide [2]): 8.24e-05 s⁻¹ | kon (human Aβ 3pE-28 peptide [2]): 3.24e+06 M⁻¹ s⁻¹ | fold higher affinity compared with wt IgG1 (BAMB674) (human FcRn [13]): ~3 fold | fold higher affinity compared with wt IgG1 (BAMB674) (cynomolgus FcRn [14]): ~3 fold | Kd (mouse Aβ 3pE-28 peptide [3]): 77.5 nM | koff (mouse Aβ 3pE-28 peptide [3]): 0.000333 s⁻¹ | kon (mouse Aβ 3pE-28 peptide [3]): 4680 M⁻¹ s⁻¹ | Kd (human FcRn [4]): 111 nM | Kd (cynomolgus FcRn [5]): 86.4 nM | Kd (human Aβ 3pE-28 peptide [6]): 0.0257 nM | Fold Selectivity (Scrambled 3pE-28 [7]): > 46000 fold | Fold Selectivity (human Aβ 1-28 peptide [8]): > 46000 fold | Kd (HU-3pE-beta-Amyloid [9]): 0.0443 nM | koff (HU-3pE-beta-Amyloid [9]): 0.000166 s⁻¹ | kon (HU-3pE-beta-Amyloid [9]): 3.74e+06 M⁻¹ s⁻¹ | Fold Selectivity (mouse Aβ 3pE-28 peptide [10]): 3010 fold | Kd (Scrambled 3pE-28 [11]): > 1200 nM | Kd (human Aβ 1-28 peptide [12]): > 1200 nM

B4: BAMB31_2a (mIgG2a) (antibody)
heavy: EIQLQQSGPELVKPGTSVKVSCKASGHVFTSYDMYWVKQSHGKSLEWIGYIDSDNGDTSYNQKFKGKATLTVDKSSSTAYMHLNSLTSEDSAVYYCAYYRYAMDYWGQGTSVTVSSAKTTAPSVYPLAPVCGDTTGSSVTLGCLVKGYFPEPVTLTWNSGSLSSGVHTFPAVLQSDLYTLSSSVTVTSSTWPSQSITCNVAHPASSTKVDKKIEPRGPTIKPCPPCKCPAPNLLGGPSVFIFPPKIKDVLMISLSPIVTCVVVDVSEDDPDVQISWFVNNVEVHTAQTQTHREDYNSTLRVVSALPIQHQDWMSGKEFKCKVNNKDLPAPIERTISKPKGSVRAPQVYVLPPPEEEMTKKQVTLTCMVTDFMPEDIYVEWTNNGKTELNYKNTEPVLDSDGSYFMYSKLRVEKKNWVERNSYSCSVVHEGLHNHHTTKSFSRTPGK
light: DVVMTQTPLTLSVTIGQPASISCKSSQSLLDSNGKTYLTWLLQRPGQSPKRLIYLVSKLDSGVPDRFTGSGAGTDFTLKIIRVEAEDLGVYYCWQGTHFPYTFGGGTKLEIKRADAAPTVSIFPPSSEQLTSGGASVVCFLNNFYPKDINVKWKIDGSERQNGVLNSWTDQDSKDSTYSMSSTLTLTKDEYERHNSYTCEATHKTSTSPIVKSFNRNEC
notes: BAMB31 V regions on murine IgG2a; also called BAMB31 (mIgG2a); mIgG2a parent
binding result (human Aβ1-40 peptide): no binding (tested: 50 nM) | Kd (human Aβ 3pE-40 peptide): 0.053 nM | koff (human Aβ 3pE-40 peptide): 4.94e-05 s⁻¹ | kon (human Aβ 3pE-40 peptide): 930000 M⁻¹ s⁻¹ | Kd (human Aβ 3pE-28 peptide [15]): 0.0275 nM | koff (human Aβ 3pE-28 peptide [15]): 7.97e-05 s⁻¹ | kon (human Aβ 3pE-28 peptide [15]): 2.89e+06 M⁻¹ s⁻¹

B5: BAMB246 (human IgG1 chimera) (antibody)
heavy: not shown
light: DVVMTQTPLTLSVTIGQPASISCKSSQSLLDSNGKTYLTWLLQRPGQSPKRLIYLVSKLDSGVPDRFTGSGAGTDFTLKIIRVEAEDLGVYYCWQGTHFPYTFGGGTKLEIKRTVAAPSVFIFPPSDEQLKSGTASVVCLLNNFYPREAKVQWKVDNALQSGNSQESVTEQDSKDSTYSLSSTLTLSKADYEKHKVYACEVTHQGLSSPVTKSFNRGEC
notes: Mouse variable regions on a human IgG1 constant region; also called human chimeric parent; huIgG1 chimera
Kd (human Aβ 3pE-28 peptide [2]): 0.0126 nM | koff (human Aβ 3pE-28 peptide [2]): 4.42e-05 s⁻¹ | kon (human Aβ 3pE-28 peptide [2]): 3.53e+06 M⁻¹ s⁻¹ | Kd (mouse Aβ 3pE-28 peptide [3]): 39.6 nM | koff (mouse Aβ 3pE-28 peptide [3]): 0.000404 s⁻¹ | kon (mouse Aβ 3pE-28 peptide [3]): 10200 M⁻¹ s⁻¹ | Kd (HU-3pE-beta-Amyloid [1]): 0.0139 nM | Fold Selectivity (Scrambled 3pE-28 [7]): > 95000 fold | Fold Selectivity (human Aβ 1-28 peptide [8]): > 95000 fold | Fold Selectivity (mouse Aβ 3pE-28 peptide [10]): 3140 fold | Kd (Scrambled 3pE-28 [11]): > 1200 nM | Kd (human Aβ 1-28 peptide [12]): > 1200 nM

B6: BAMB611 (antibody, human IgG1, kappa, V domains shown)
VH: B1 VH with S44G, I48M, K67R, A68V
VL: B1 VL with R33N, A34G, L41F
notes: Human framework adapted (HFA) variant of BAMB31, human IgG1
Kd (HU-3pE-beta-Amyloid [1]): 1.52 nM

B7: BAMB612 (antibody, human IgG1, kappa, V domains shown)
VH: B1 VH with A40S, S44G, K67R, A68V, M70L
VL: B1 VL
notes: as for B1
Kd (HU-3pE-beta-Amyloid [1]): 0.0117 nM

B8: BAMB613 (antibody, human IgG1, kappa, V domains shown)
VH: B1 VH with S44G, A68V, M70L
VL: B1 VL
notes: as for B1
Kd (HU-3pE-beta-Amyloid [1]): 0.0182 nM

B9: BAMB700 (antibody, human IgG1, kappa)
heavy: not shown
light: B2 light with G105Q
Kd (HU-3pE-beta-Amyloid [9]): 0.0342 nM | koff (HU-3pE-beta-Amyloid [9]): 9.86e-05 s⁻¹ | kon (HU-3pE-beta-Amyloid [9]): 2.88e+06 M⁻¹ s⁻¹

B10: BAMB701 (antibody, human IgG1, kappa)
heavy: B3 heavy
light: B2 light with L109V
Kd (HU-3pE-beta-Amyloid [9]): 0.0314 nM | koff (HU-3pE-beta-Amyloid [9]): 9.47e-05 s⁻¹ | kon (HU-3pE-beta-Amyloid [9]): 3.01e+06 M⁻¹ s⁻¹

B11: BAMB614 (antibody, human IgG1, kappa, V domains shown)
VH: B1 VH with S44G, K67R, A68V, M70L
VL: B1 VL
notes: as for B1
Kd (HU-3pE-beta-Amyloid [1]): 0.016 nM

B12: BAMB630 (antibody, human IgG1, kappa, V domains shown)
VH: B1 VH with R38K, A68V, M70L
VL: B1 VL with Q42L
notes: as for B1
Kd (HU-3pE-beta-Amyloid [1]): 0.0383 nM

B13: BAMB631 (antibody, human IgG1, kappa, V domains shown)
VH: B1 VH with I48M, K67R, A68V, M70L
VL: B1 VL with Q42L
notes: as for B1
Kd (HU-3pE-beta-Amyloid [1]): 0.018 nM
